Like-named read-outs stand apart in the source and are kept apart here.
What was measured:
Protease X = format: biochemical, Streptomyces lividans; conditions: for effect of additive on the protease's activity: additive at 20 mM
Protocol: (§1) The characteristics of the protease reaction catalyzed by this enzyme were determined using the synthetic substrate assay where various synthetic substrates are dissolved at a concentration of 100 mg/ml in dimethylsulfoxide (DMSO). 200 μl aliquots from bacterial culture supernatants were mixed with 780 μl of 5 mM Tris, 25 mM NaCl, pH 7, and incubated at the desired temperature Digestions were then initiated by the addition of 20 μl of substrate and the rate of absorbance at 405 nm was followed for several minutes.
^a The assays were performed for 2 min. at 65° C. at pH 7.5.

proteins = experiment: peptide mapping of the protease; format: biochemical; conditions: fragments generated during peptide mapping of the protease
azocasein = azocasein assay; format: biochemical; conditions: longer incubation times
Protocol: After washing the column with buffer, the dialysed protein sample was loaded onto the column. The protein was eluted using a linear gradient of 0.0 to 0.5M NaCl. The eluate's A280 was monitored and 8 ml fractions were collected. […] Following the incubation, the assay reaction was terminated by the addition of 200 μl of 10% trichloroacetic acid and incubation at room temperature for several minutes. The solutions were then neutralized by adding 200 μl 0.2N NaOH to each sample. Samples were centrifuged 2 min. The supernatants were removed and the activity of the fractions was determined from the increase in absorbance at 420 nm.

[1] = synthetic substrate assay of protease-containing S. lividans (pHL45) broth; format: biochemical; conditions: for Activity (dA/min): control broth activity subtracted
Protocol: as §1
Here, the broth from recombinant S. lividans containing pHL45, as well as the broth from an identical S. lividans culture containing a control plasmid only (pIJ699), were compared for proteolytic activity by directly assaying activity in the presence of several different substrates. This experiment was conducted at 37° C. pH 7.0 and 65° C. pH 7 5, in the presence of 10 mM calcium. The substrates tested were: succinyl-ala-ala-pro-phe-pNitroanilide, succinyl-tyr-leu-val-pNitroanilide, ala-pNitroanilide, and leu-pNitroanilide. […] The temperature optimum for the proteolytic reaction was determined using succinyl-ala-ala-pro-phe-pNitroanilide in 10 mM Tris, 25 mM NaCl, pH 7.0.

[2] = 20 mM additive, 2 min. at 65° C. at pH 7.5, 0.170 without additive

## [Cl-].[Cl-].[Mg+2] [MgCl2]
Protease X; [2]
  Protease activity (dA/min) in presence of additive: 0.250 dA/min
Protease X; 65° C., pH 7.5
  effect of additive on the protease's activity: appears to enhance

## [Ca+2].[Cl-].[Cl-] [CaCl2]
Protease X; 5 mM additive, 2 min. at 65° C. at pH 7.5, 0.170 without additive
  Protease activity (dA/min) in presence of additive: 0.235 dA/min
Protease X; [2]
  Protease activity (dA/min) in presence of additive: 0.251 dA/min
Protease X; 65° C., pH 7.5
  effect of additive on the protease's activity: enhanced

## O=C(O)CN(CCN(CC(=O)O)CC(=O)O)CC(=O)O [EDTA, reference compound]
Protease X; pH 7.5
  Protease activity (dA/min) in presence of additive: 0.120 dA/min

## O=S(=O)(F)Cc1ccccc1 [PMSF, reference compound]
Protease X; 1 mM additive, 2 min. at 65° C. at pH 7.5, 0.170 without additive
  Protease activity (dA/min) in presence of additive: 0.000 dA/min
Protease X; addition of PMSF, 65° C., pH 7.5
  effect of additive on the protease reaction: totally inhibited

B1: Protease X: novel protease [SEQ ID NO: 2] secreted into the culture medium by S. lividans (protein)
chain: MRITLPLLSTAVGLGLTAAVLGTGPAATAAAPQEPVRAAQLGYQPSAGSGEDAAANRAFFEAVVKSVAEKRAANPSAAAAVTVYYSATNAPSFRSQISRSAQIWNSSVSNVRLAESSSGADFAYYEGNDSRGSYASTDGHGSGYIFLDYRQNQQYDSTRVTAHETGHVLGLPDHYSGPCSELMSGGGPGPSCTNPYPNSTERSRVNQLWAYGFQAALDKALEKASQR
proteins
  cleavage site preference: preferentially processes proteins amino-terminally of tyrosine
azocasein
  temperature optimum in the azocasein assay: 60 °C
[1]; 10 mM Tris, 25 mM NaCl, pH 7.0
  temperature optimum for cleavage of succinyl-ala-ala-pro-phe-pNitroanilide: 65 °C
[1]; 65° C.
  time for which catalytic rate remains linear: at least 2 min
[1]; 65° C. reaction
  pH optimum: 7.5 pH
[1]; 70° C., initial catalytic rate very fast, enzyme apparently becomes denatured
  thermal stability of the activity: activity drops off dramatically
[1]; Temperature 30.000, 10 mM Tris, 25 mM NaCl, pH 7.0
  Activity (dA/min): 0.008 dA/min
[1]; Temperature 40.000, 10 mM Tris, 25 mM NaCl, pH 7.0
  Activity (dA/min): 0.017 dA/min
[1]; Temperature 50.000, 10 mM Tris, 25 mM NaCl, pH 7.0
  Activity (dA/min): 0.042 dA/min
[1]; Temperature 60.000, 10 mM Tris, 25 mM NaCl, pH 7.0
  Activity (dA/min): 0.074 dA/min
[1]; Temperature 65.000, 10 mM Tris, 25 mM NaCl, pH 7.0
  Activity (dA/min): 0.085 dA/min
[1]; Temperature 70.000, 10 mM Tris, 25 mM NaCl, pH 7.0
  Activity (dA/min): 0.047 dA/min
[1]; no additive, 2 min. at 65° C. at pH 7.5
  Activity (dA/min): 0.170 dA/min
[1]; only substrate of four tested, 37° C. pH 7.0 and 65° C. pH 7 5, 10 mM calcium
  proteolytic activity on substrate compared with control broth (pIJ699): showed activity above that of the control
[1]; pH 6.000, 65° C. reaction
  Activity (dA/min): 0.048 dA/min
[1]; pH 7.000, 65° C. reaction
  Activity (dA/min): 0.085 dA/min
[1]; pH 7.500, 65° C. reaction
  Activity (dA/min): 0.190 dA/min
[1]; pH 8.000, 65° C. reaction
  Activity (dA/min): 0.105 dA/min

Reference: patent US5516685A, “Isolation and characterization of a novel protease from Streptomyces lividans” (Amgen Inc., priority 1994, dated 1996)
